Molecular target: the molecule itself
Test: crystal structure

B1: Bacillus halodurans tRNA isopentenyltransferase MiaA (BH2366), full length (enzyme, UniProt Q9KAC3 1-314, looked up)
chain: MKEKLVAIVGPTAVGKTKTSVMLAKRLNGEVISGDSMQVYRGMDIGTAKITAEEMDGVPHHLIDIKDPSESFSVADFQDLATPLITEIHERGRLPFLVGGTGLYVNAVIHQFNLGDIRADEDYRHELEAFVNSYGVQALHDKLSKIDPKAAAAIHPNNYRRVIRALEIIKLTGKTVTEQARHEEETPSPYNLVMIGLTMERDVLYDRINRRVDQMVEEGLIDEAKKLYDRGIRDCQSVQAIGYKEMYDYLDGNVTLEEAIDTLKRNSRRYAKRQLTWFRNKANVTWFDMTDVDFDKKIMEIHNFIAGKLEEKSK
- stoichiometry N: 2

Reference: paper PMC2786004 (Biochemistry, 2009)
